Data set [1] addresses NOT10:NOT11 (Homo sapiens, UniProt Q9H9A5;Q9UKZ1 25-707;257-498). Nature of the data set: EMSA; 1 uM protein, 100 nM RNA; EMSA: 20 mM Tris/HCl pH 7.5, 10 mM NaCl, 2 mM MgCl2, 0.1% BSA, 0.1% Orange G, 3% Ficoll 400; 100 nM RNA; 10% native PAGE in TBE pH 8.3; temperature not stated. Particulars: protein: recombinant; tags: MBP (NOT10) and C-His6 (NOT11) removed; copies: 1;1; label: 5' 6-FAM. For orientation: A gel shift assay detects complexes by their altered migration in electrophoresis.

In data set [2] the target is T1, CAF40 module (NOT1:CAF40) (Homo sapiens, UniProt A5YKK6;Q92600 1351-1588;19-285). Description: EMSA; 25 uM protein, 100 nM RNA; EMSA: 20 mM Tris/HCl pH 7.5, 10 mM NaCl, 2 mM MgCl2, 0.1% BSA, 0.1% Orange G, 3% Ficoll 400; 100 nM RNA; 10% native PAGE in TBE pH 8.3; temperature not stated. Particulars: protein: recombinant; tags: MBP (NOT1) and His6 (CAF40) removed; copies: 1;1; label: 5' 6-FAM.

For data set [3], the target named is T1, CAF40 module (NOT1:CAF40). Description: EMSA competition; 100 uM NOT1:CAF40 + 200 uM MBP-Bam CBM L17E;M24E; almost no effect on RNA binding; EMSA: 20 mM Tris/HCl pH 7.5, 10 mM NaCl, 2 mM MgCl2, 0.1% BSA, 0.1% Orange G, 3% Ficoll 400; 100 nM RNA; 10% native PAGE in TBE pH 8.3; temperature not stated. As to conditions: protein: recombinant; tags: MBP (NOT1) and His6 (CAF40) removed; copies: 1;1; label: 5' 6-FAM.

The source of these data is paper PMC6639331, “Reconstitution of recombinant human CCR4-NOT reveals molecular insights into regulated deadenylation”.

T1 sequence (A5YKK6 1351-1588, chain 1 of 2): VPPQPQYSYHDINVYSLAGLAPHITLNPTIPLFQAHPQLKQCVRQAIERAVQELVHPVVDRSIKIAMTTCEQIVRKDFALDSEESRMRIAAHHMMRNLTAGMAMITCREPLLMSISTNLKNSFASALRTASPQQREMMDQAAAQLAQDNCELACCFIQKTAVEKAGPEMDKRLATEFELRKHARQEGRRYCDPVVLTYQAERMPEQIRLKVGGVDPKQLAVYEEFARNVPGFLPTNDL
T1 sequence (Q92600 19-285, chain 2 of 2): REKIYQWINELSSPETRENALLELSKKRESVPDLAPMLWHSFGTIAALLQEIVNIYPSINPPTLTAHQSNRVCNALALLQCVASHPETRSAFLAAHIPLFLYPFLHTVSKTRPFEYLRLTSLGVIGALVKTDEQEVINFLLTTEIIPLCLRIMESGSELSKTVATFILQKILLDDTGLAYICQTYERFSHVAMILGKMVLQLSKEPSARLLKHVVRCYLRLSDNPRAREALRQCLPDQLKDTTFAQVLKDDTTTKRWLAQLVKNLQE
Sequence of NOT10:NOT11 (Q9H9A5 25-707, chain 1 of 2, other chains not shown): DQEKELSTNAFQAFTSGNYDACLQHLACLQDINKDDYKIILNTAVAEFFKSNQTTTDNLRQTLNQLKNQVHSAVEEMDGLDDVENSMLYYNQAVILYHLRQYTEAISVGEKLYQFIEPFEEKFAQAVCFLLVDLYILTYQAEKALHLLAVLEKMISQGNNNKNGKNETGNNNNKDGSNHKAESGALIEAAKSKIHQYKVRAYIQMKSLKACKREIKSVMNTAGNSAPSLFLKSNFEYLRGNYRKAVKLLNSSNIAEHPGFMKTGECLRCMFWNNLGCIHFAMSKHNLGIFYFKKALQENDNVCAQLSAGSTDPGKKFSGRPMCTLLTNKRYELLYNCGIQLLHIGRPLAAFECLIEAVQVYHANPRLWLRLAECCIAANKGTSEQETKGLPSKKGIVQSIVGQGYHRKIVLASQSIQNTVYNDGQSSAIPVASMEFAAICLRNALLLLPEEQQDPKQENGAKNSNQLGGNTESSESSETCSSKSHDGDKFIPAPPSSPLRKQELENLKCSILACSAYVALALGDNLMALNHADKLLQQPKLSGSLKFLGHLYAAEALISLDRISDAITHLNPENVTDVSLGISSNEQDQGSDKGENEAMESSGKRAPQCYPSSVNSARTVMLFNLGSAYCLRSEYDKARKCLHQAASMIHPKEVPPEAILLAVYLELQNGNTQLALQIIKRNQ

Turning to CACAUCCAACUUCUCUAAAUAAAAAAAAAAAAAAAAAAAA (ssRNA) [13+7-mer-A20], the binding result in data set [1] and in data set [2] was “binds” in each case.
UCUAAAUAAAAAAAAAAAAAAAAAAAA (ssRNA) [7-mer-A20]: the binding result in data set [1] and in data set [3] was “binds” each time.
